Laboratory results from patent US20260217833A1 (APTEVO RESEARCH AND DEVELOPMENT, published 2026).
Where a chain is given by its changes, count along the chain named. Where two headings read alike, the source gives them in different places. Each block holds one binder with its values, some of them ahead of it.

Experiments:
Cyno PD-L1 full-length = target: T1, Cyno PD-L1 full-length (cynomolgus, UniProt Q9NZQ7 19-290 (human entry)); assay: MSD cell binding, CHOK1SV/cynomolgus PD-L1 cells; x axis without printed unit
T1 construct: also called PDL01022; CHOK1SV/cynoPDL1
T1 sequence (Q9NZQ7 other isoform, or with tags, fused parts or gaps): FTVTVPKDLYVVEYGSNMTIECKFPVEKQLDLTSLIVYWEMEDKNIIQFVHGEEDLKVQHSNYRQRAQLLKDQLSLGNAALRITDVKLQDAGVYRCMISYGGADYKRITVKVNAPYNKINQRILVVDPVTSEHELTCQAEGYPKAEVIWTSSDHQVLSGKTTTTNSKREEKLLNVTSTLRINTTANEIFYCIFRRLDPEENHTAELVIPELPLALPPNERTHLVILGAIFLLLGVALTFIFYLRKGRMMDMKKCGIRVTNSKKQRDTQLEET

huPD-L1 ECD AFH = target: T2, huPD-L1 ECD AFH (human); assay: SPR, binder captured on anti-human IgG, PD-L1 ECD injected, 1:1 fit
T2 construct: also called PDL01001; recombinant human PD-L1 ectodomain (ECD)
T2 sequence (chain, as listed by the source limits assumed): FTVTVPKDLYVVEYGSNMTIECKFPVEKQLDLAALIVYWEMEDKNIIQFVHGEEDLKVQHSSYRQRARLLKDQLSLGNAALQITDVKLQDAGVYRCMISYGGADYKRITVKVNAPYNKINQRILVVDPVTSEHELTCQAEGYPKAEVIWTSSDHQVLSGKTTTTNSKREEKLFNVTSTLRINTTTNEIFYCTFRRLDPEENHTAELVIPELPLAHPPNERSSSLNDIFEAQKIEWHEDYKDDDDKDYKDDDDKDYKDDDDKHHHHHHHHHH

Human PD-L1 full-length [1] = target: T3, Human PD-L1 full-length (human, UniProt Q9NZQ7 19-290); assay: MSD cell binding, CHOK1SV/human PD-L1 cells; x axis without printed unit
T3 construct: also called PDL01021; CHOK1SV/huPDL1
T3 sequence (Q9NZQ7 19-290): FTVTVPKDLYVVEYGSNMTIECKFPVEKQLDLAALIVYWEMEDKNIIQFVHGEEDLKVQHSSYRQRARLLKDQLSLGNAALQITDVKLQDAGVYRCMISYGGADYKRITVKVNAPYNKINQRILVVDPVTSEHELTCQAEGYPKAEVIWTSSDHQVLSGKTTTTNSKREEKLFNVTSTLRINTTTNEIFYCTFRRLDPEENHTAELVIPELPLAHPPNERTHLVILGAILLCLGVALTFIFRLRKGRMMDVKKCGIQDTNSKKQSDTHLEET

Cynomolgus CHOK1SV/CD40 = target: T4, Cynomolgus CHOK1SV/CD40; assay: flow cytometry, CHOK1SV/cynomolgus CD40 cells
T4 construct: also called Cyno CD40 full-length; CD4001013
T4 receptor chain: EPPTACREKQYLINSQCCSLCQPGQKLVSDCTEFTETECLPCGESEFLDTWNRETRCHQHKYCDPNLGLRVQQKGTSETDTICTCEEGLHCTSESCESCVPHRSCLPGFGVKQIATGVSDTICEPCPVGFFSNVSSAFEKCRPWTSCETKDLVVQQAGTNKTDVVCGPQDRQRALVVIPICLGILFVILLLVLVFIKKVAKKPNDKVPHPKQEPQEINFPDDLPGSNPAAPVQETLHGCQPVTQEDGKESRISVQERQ

Human PD-L1 full-length [2] = target: T3, Human PD-L1 full-length; assay: flow cytometry, CHOK1SV/human PD-L1 cells
[3] = target: T5, human neonatal Fc receptor (FcRn, complexed with beta-2-macroglobulin) (human, UniProt P55899 24-297; P61769 21-119); assay: SPR, FcRn/b2m immobilized, bispecific injected, pH 6.0, two-state reaction fit
T5 construct: also called Human FcRn/b2m

Human PD-L1 full-length [4] = target: T3, Human PD-L1 full-length; assay: flow cytometry, CHOK1SV/human PD-L1 cells; remark: listed apart in the source
human CD40 full-length [5] = target: T6, human CD40 full-length (human, UniProt P25942 21-277); assay: flow cytometry, CHOK1SV/human CD40 cells
T6 construct: Also used for CD40 of Daudi cells, of CD40-expressing HEK293 cells and of the BPS CD40/NFkB HEK293 reporter cells where the row says so; also called CD4001012; CHOK1SV/CD40

human CD40 ECD- HAC tag = target: T7, human CD40 ECD- HAC tag (human); assay: SPR (Biacore T200), bispecific captured on the chip, monovalent CD40 ECD injected
T7 construct: also called CD4001006; recombinant monomeric human CD40 ectodomain (ECD)

Human PD-L1 full-length [6] = target: T3, Human PD-L1 full-length; assay: flow cytometry, CHOK1SV/human PD-L1 cells; remark: listed apart in the source
human CD40 full-length [7] = target: T6, human CD40 full-length; assay: flow cytometry, CHOK1SV/human CD40 cells; remark: listed apart in the source
human CD40 full-length [8] = target: T6, human CD40 full-length; assay: binding to cells expressing full length human- or cyno-CD40, unpurified small-scale material

binding result (Cyno PD-L1 full-length): binds
Kd (huPD-L1 ECD AFH): 0.2 nM
koff (huPD-L1 ECD AFH): 0.00024 s⁻¹
kon (huPD-L1 ECD AFH): 1.4e+06 M⁻¹ s⁻¹
binding result (Human PD-L1 full-length [1]): binds
B1: PDL01034 (5F9HL x human IgG1 WT Fc) (Fc fusion)
chain: EVKLVESGGGLVQPGGSRKLSCAASGFTFSDYGMAWVRQAPGKGPEWVAFITSLAYIIFYSDTVTGRFTISRENAKNTLYLEMSSLRSEDTAVYYCARNYGSSPYYFDYWGQGTTLTVSSGGGGSGGGGSGGGGSGGGGSDIQMTQSPSSLSTSLGGKVTITCKASQDINKFISWYQHKPGKGPRLLIHYTSSLQPGIPSRFSGSGSGRDYSFSISNLEPEDIATYYCLQYDNLYTFGGGTKLEIK
notes: Murine anti-PD-L1 scFv (VH-VL) on human IgG1 wild-type Fc; also called PDL01034 (Parent); 5F9 clone PDL01034; not shown: human IgG1 WT Fc

binding result (Cynomolgus CHOK1SV/CD40): binds
EC50 (read off the curve) (Human PD-L1 full-length [2]): ~3 nM
Kd [3]: 121 nM
EC50 (read off the curve) (Human PD-L1 full-length [4]): ~3 nM
B2: PC401003 (bispecific antibody)
chain: DIQMTQSPSSLSASVGDRVTITCRASQDINKFLSWYQQKPGKAPKLLIHYTSSLQSGVPSRFSGSGSGTDFTLTISSLQPEDFATYYCLQYDNLYTFGQGTKLEIKGGGGSGGGGSGGGGSGGGGSEVQLVESGGGLVQPGGSLRLSCAASGFTFSDYGMAWVRQAPGKGLEWVSFITSLAYIIYYADSVKGRFTISRDNAKNSLYLQMNSLRAEDTAVYYCARNYGSSPYYFDYWGQGTLVTVSSEPKSSDKTHTCPPCPAPPAAAPSVFLFPPKPKDTLMISRTPEVTCVVVDVSHEDPEVKFNWYVDGVEVHNAKTKPREEQYNSTYRVVSVLTVLHQDWLNGKEYKCAVSNKALPAPIEKTISKAKGQPREPQVYTLPPSRDELTKNQVSLTCLVKGFYPSDIAVEWESNGQPENNYKTTPPVLDSDGSFFLYSKLTVDKSRWQQGNVFSCSVMHEALHNHYTQKSLSLSPGGGGSPSDIQMTQSPSSVSASVGDRVTITCRASQSLLFSVNQKNYLAWYQQKPGKAPKLLIYWASSLQSGVPSRFSGSGSGTDFTLTISSLQPEDFATYYCQHYYSYPWTFGQGTKVEIKGGGGSGGGGSGGGGSGGGGSQVQLVQSGAEVKKPGSSVKVSCKASGYTFSTSWIEWIRQAPGQGLEWMGSILPGSGSTNYAQKFQGRVTITADTSTSTAYMELSSLRSEDTAVYYCARGDDGSYVRWYFDHWGQGTLVTVSS
notes: also called Parent; DDG (Original)

binding result (human CD40 full-length [5]): binds
binding result (Cynomolgus CHOK1SV/CD40): binds
binding result (Human PD-L1 full-length [4]): binds
B3: PC401128 (bispecific antibody)
scFv-Fc-scFv chain: B2 chain with L512T
notes: also called L-Leu30Thr

binding result (human CD40 full-length [5]): binds
binding result (Cynomolgus CHOK1SV/CD40): binds
EC50 (read off the curve) (Human PD-L1 full-length [2]): ~5 nM
Kd [3]: 122 nM
Kd (human CD40 ECD- HAC tag): 57 nM
koff (human CD40 ECD- HAC tag): 0.0004 s⁻¹
kon (human CD40 ECD- HAC tag): 7000 M⁻¹ s⁻¹
B4: PC401119 (bispecific antibody)
chain: B2 chain with A676N
notes: also called H-Ala60Asn

binding result (human CD40 full-length [5]): binds
binding result (Cynomolgus CHOK1SV/CD40): binds
Kd [3]: 144 nM
binding result (Human PD-L1 full-length [4]): binds
B5: PC401124 (bispecific antibody)
chain: B2 chain with A676N, V720N
notes: also called H-Ala60Asn + H-Val100aAsn

binding result (human CD40 full-length [5]): binds
binding result (Cynomolgus CHOK1SV/CD40): binds
EC50 (read off the curve) (Human PD-L1 full-length [2]): ~3 nM
Kd [3]: 134 nM
Kd (human CD40 ECD- HAC tag): 69 nM
koff (human CD40 ECD- HAC tag): 0.0006 s⁻¹
kon (human CD40 ECD- HAC tag): 8700 M⁻¹ s⁻¹
B6: PC401122 (bispecific antibody)
chain: B2 chain with V720N
notes: also called H-Val100aAsn

binding result (human CD40 full-length [5]): binds
binding result (Cynomolgus CHOK1SV/CD40): binds
EC50 (read off the curve) (Human PD-L1 full-length [2]): ~3 nM
Kd [3]: 146 nM
Kd (human CD40 ECD- HAC tag): 74 nM
koff (human CD40 ECD- HAC tag): 0.00054 s⁻¹
kon (human CD40 ECD- HAC tag): 7200 M⁻¹ s⁻¹
B7: PC401120 (bispecific antibody)
chain: B2 chain with Q588C, G659C
notes: also called L-Gln100Cys + H-Gly44Cys

binding result (Human PD-L1 full-length [6]): binds
binding result (human CD40 full-length [7]): binds
B8: CD4001080 (bispecific antibody)
Fc-knob x CD40_5B9: EPKSSDKTHTCPPCPAPPAAAPSVFLFPPKPKDTLMISRTPEVTCVVVDVSHEDPEVKFNWYVDGVEVHNAKTKPREEQYNSTYRVVSVLTVLHQDWLNGKEYKCAVSNKALPAPIEKTISKAKGQPREPQVYTLPPSRDELTKNQVSLWCLVKGFYPSDIAVEWESNGQPENNYKTTPPVLDSDGSFFLYSKLTVDKSRWQQGNVFSCSVMHEALHNHYTQKSLSLSPGGGGSPSDVVMTQTPLSLPVSLGDQASISCRSSQSLVHYNGYTYLHWYLQKPGQSPKLLIYKVSNRFSGVPDRFSGSGSGTDFTLKISRVEAEDLGVYFCSQTTHVPLTFGAGTKLELRGGGGSGGGGSGGGGSGGGGSEVMLVESGGGLVKPGGSLKLSCAASGFTFSSYAMSWVRQTPERRLEWVASISSAGTYIYYPDSVKGRFTISRDNAKNILYLQMNSLRSEDTAMYYCARHGNGYDPLWYFDVWGAGTTVTVSS
PDL_5F9 x Fc-Hole x CD40_5B9: EVQLVESGGGLVKPGGSLRLSCAASGFTFSDYGMAWVRQAPGKGLEWVAFITSLAYIIYYADSVKGRFTISRDNAKNSLYLQMNSLRAEDTAVYYCARNYGSSPYYFDYWGQGTLVTVSSGGGGSGGGGSGGGGSGGGGSDIQMTQSPSSLSASVGDRVTITCRASQDINKFLSWYQQKPGKAPKLLIHYTSSLQPGVPSRFSGSGSGTDFTLTISSLQPEDFATYYCLQYDNLYTFGQGTKLEIKEPKSSDKTHTCPPCPAPPAAAPSVFLFPPKPKDTLMISRTPEVTCVVVDVSHEDPEVKFNWYVDGVEVHNAKTKPREEQYNSTYRVVSVLTVLHQDWLNGKEYKCAVSNKALPAPIEKTISKAKGQPREPQVYTLPPSRDELTKNQVSLSCAVKGFYPSDIAVEWESNGQPENNYKTTPPVLDSDGSFFLVSKLTVDKSRWQQGNVFSCSVMHEALHNRFTQKSLSLSPGGGGSPSDVVMTQTPLSLPVSLGDQASISCRSSQSLVHYNGYTYLHWYLQKPGQSPKLLIYKVSNRFSGVPDRFSGSGSGTDFTLKISRVEAEDLGVYFCSQTTHVPLTFGAGTKLELRGGGGSGGGGSGGGGSGGGGSEVMLVESGGGLVKPGGSLKLSCAASGFTFSSYAMSWVRQTPERRLEWVASISSAGTYIYYPDSVKGRFTISRDNAKNILYLQMNSLRSEDTAMYYCARHGNGYDPLWYFDVWGAGTTVTVSS

Kd (huPD-L1 ECD AFH): 1.1 nM
koff (huPD-L1 ECD AFH): 0.0012 s⁻¹
kon (huPD-L1 ECD AFH): 1.1e+06 M⁻¹ s⁻¹
B9: PDL01152 (Fc fusion)
chain: DIQMTQSPSSLSASVGDRVTITCRASQDINKFLSWYQQKPGKAPKLLIHYTSSLQSGVPSRFSGSGSGTDFTLTISSLQPEDFATYYCLQYDNLYTFGQGTKLEIKGGGGSGGGGSGGGGSGGGGSEVQLVESGGGLVQPGGSLRLSCAASGFTFSDYGMAWVRQAPGKGLEWVSFITSLAYIIYYADSVKGRFTISRDNAKNSLYLQMNSLRAEDTAVYYCARNYGSSPYYFDYWGQGTLVTVSS
notes: scFv (VL-VH); also called Humanized 5F9 anti-PD-L1 scFv; not shown: wildtype IgG1 Fc region

binding result (human CD40 full-length [8]): binds
B10: CD4001090 (Fc fusion)
chain: EVVMTQSPDFQSVTPKEKVTITCRSSQSLVHYNGYTYLHWYQQKPDQSPKLLIYKVSNRFSGVPSRFSGSGSGTDFTLTINSLEAEDAAAYFCSQTTHVPLTFGPGTKVDIKGGGGSGGGGSGGGGSGGGGSEVQLVESGGGVVQPGRSLRLSCAASGFTFSSYAMSWVRQAPGKGLEWVASISSAGTYIYYADSVKGRFTISRDNSKNTLYLQMNGLRAEDTAVYYCARHGNGYDPLWYFDVWGQGTLVTVSS
notes: As m65; not shown: wildtype IgG1 Fc region

binding result (human CD40 full-length [8]): binds
B11: CD4001088 (Fc fusion)
chain: B10 chain with V143L, K197Q, S207G, T210S, G217S, V225L, L249M
notes: as for B10

binding result (human CD40 full-length [8]): binds
B12: CD4001099 (Fc fusion)
chain: B10 chain with V143L, V144E, R148G, G217S, L249T
notes: as for B10
